One assay concerns the target T1, His-tagged NOB1 (human, UniProt Q9ULX3 1-412).
T1 construct: also called His-NOB1; source: E. coli BL21 Codon Plus, purified (Ni-NTA, desalted); not shown: His6, N-terminal, kept
T1 sequence (looked up): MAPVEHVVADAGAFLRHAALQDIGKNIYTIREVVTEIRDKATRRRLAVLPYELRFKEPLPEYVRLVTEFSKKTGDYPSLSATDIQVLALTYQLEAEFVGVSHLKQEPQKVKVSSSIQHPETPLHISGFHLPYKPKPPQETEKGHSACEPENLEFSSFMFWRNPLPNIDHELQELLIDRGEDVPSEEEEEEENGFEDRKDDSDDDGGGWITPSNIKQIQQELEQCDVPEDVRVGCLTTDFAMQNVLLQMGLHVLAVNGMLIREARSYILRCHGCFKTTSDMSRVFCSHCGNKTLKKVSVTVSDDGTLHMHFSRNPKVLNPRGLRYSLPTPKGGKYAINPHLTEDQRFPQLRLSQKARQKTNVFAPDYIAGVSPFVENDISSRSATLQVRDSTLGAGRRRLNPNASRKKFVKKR
The experiment in a line: pull-down; 50 ng GST-tagged bait with equal amounts of His-tagged or untagged prey; 50 mM Tris-HCl pH 8.0, 10% glycerol, 300 mM NaCl, 5 mM MgCl2, 0.1% Tween20; 1 h at 4°C; glutathione sepharose; western blotting. The note with it: both partners purified.

The target of another assay is T2, GST-tagged RIO2 (human, UniProt Q9BVS4-1 1-552).
T2 construct: also called GST-RIO2; source: E. coli BL21 Codon Plus, purified (glutathione sepharose, desalted); not shown: GST, N-terminal, kept
Described as above. The note with it: both partners purified.

T2 sequence (Q9BVS4 whole entry): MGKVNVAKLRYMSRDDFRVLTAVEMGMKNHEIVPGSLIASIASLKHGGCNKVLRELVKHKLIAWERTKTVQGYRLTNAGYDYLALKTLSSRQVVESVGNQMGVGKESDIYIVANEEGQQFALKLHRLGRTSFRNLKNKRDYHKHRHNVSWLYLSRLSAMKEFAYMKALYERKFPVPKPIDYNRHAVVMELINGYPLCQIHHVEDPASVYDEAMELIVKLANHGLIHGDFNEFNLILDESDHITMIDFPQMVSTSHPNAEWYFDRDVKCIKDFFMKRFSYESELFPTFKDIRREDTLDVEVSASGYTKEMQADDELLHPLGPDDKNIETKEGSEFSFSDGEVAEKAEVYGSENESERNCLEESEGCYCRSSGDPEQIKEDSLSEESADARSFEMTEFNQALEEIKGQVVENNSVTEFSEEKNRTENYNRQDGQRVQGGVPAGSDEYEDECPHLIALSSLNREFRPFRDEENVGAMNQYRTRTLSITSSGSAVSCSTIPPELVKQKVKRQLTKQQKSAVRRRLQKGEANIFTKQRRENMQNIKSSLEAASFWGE

B1: GST-tagged PNO1 (natural protein)
chain: not shown
notes: also called GST-PNO1; source: E. coli BL21 Codon Plus, purified (glutathione sepharose, desalted); not shown: GST, N-terminal, kept
Regarding B1, the binding result with His-tagged NOB1 is “binds”.

B2: His-tagged DIM1 (natural protein, human, UniProt Q9UNQ2 1-313, looked up)
chain: MPKVKSGAIGRRRGRQEQRRELKSAGGLMFNTGIGQHILKNPLIINSIIDKAALRPTDVVLEVGPGTGNMTVKLLEKAKKVVACELDPRLVAELHKRVQGTPVASKLQVLVGDVLKTDLPFFDTCVANLPYQISSPFVFKLLLHRPFFRCAILMFQREFALRLVAKPGDKLYCRLSINTQLLARVDHLMKVGKNNFRPPPKVESSVVRIEPKNPPPPINFQEWDGLVRITFVRKNKTLSAAFKSSAVQQLLEKNYRIHCSVHNIIIPEDFSIADKIQQILTSTGFSDKRARSMDIDDFIRLLHGFNAEGIHFS
notes: also called His-DIM1; source: E. coli BL21 Codon Plus, purified (Ni-NTA, desalted); not shown: His6, N-terminal, kept
Regarding B2, the binding result with GST-tagged RIO2 is reported as “binds”.

The record behind these values is PMC6380343, “Interactions and activities of factors involved in the late stages of human 18S rRNA maturation” (RNA Biology, 2019).
